{"source": "patent US20250382354A1", "key": {"[1]": {"target": "CRCoV-240/05 HR2 peptide (CRCoV-240/05)", "assay": "peptide ELISA"}, "[2]": {"target": "HKU24 HR2 peptide (HKU24)", "assay": "peptide ELISA"}, "HKU4 HR2 peptide (HKU4)": {"target": "HKU4 HR2 peptide (HKU4) (UniProt A3EX94)", "assay": "peptide ELISA"}, "HKU5 HR2 peptide (HKU5)": {"target": "HKU5 HR2 peptide (HKU5) (UniProt A3EXD0)", "assay": "peptide ELISA"}, "MHV HR2 peptide (MHV)": {"target": "MHV HR2 peptide (MHV)", "assay": "peptide ELISA"}, "[3]": {"target": "SARS-CoV-2 HR2 peptide (SARS-CoV-2) (UniProt P0DTC2)", "assay": "peptide ELISA"}, "MERS S ectodomain (MERS)": {"target": "MERS S ectodomain (MERS)", "assay": "ELISA on coated S"}, "[4]": {"target": "C-terminally truncated SARS-CoV-2 S protein (pSARS-CoV2-Strunc), ancestral (SARS-CoV-2) (UniProt P0DTC2)", "assay": "cell-based or functional assay"}}}
{"substance": "S2P6 (antibody)", "values": [{"measurement": "EC50", "setting": "[1]", "value": 0.0189, "unit": "µg/mL"}, {"measurement": "EC50", "setting": "[2]", "value": 0.0101, "unit": "µg/mL"}, {"measurement": "EC50", "setting": "HKU4 HR2 peptide (HKU4)", "value": 0.00975, "unit": "µg/mL"}, {"measurement": "EC50", "setting": "HKU5 HR2 peptide (HKU5)", "value": 0.0345, "unit": "µg/mL"}, {"measurement": "EC50", "setting": "MHV HR2 peptide (MHV)", "value": 0.0215, "unit": "µg/mL"}, {"measurement": "EC50", "setting": "[3]", "value": 0.0166, "unit": "µg/mL"}, {"measurement": "EC50", "setting": "MERS S ectodomain (MERS)", "value": 0.066, "unit": "µg/mL"}, {"measurement": "Ancestral Pseudovirus IC50 (on cells with [not given])", "setting": "[4]", "value": 23.2, "unit": "µg/mL"}]}
